Laboratory results taken from paper PMC7725785, “TRIB3 promotes MYC-associated lymphoma development through suppression of UBE3B-mediated MYC degradation” (Nature Communications, 2020).
Where no end group is shown, it is not given here. [ ]: non-standard residue; d: D form.

What was measured:
GST-tagged TRIB3 = target: T1, GST-tagged TRIB3 (human, UniProt Q96RU7 1-358); assay: SPR; BIAcore T200; TRIB3 immobilised directly on a CM5 chip; 0–200 nM peptide passed over; HBS-EP pH 7.4, 25 °C, 25 μl/min; conditions: both partners purified
T1 construct: purified recombinant TRIB3; also called TRIB3-GST; TRIB3 protein; source: bought: Sinobiological (10731-H09B), purified
T1 sequence (looked up): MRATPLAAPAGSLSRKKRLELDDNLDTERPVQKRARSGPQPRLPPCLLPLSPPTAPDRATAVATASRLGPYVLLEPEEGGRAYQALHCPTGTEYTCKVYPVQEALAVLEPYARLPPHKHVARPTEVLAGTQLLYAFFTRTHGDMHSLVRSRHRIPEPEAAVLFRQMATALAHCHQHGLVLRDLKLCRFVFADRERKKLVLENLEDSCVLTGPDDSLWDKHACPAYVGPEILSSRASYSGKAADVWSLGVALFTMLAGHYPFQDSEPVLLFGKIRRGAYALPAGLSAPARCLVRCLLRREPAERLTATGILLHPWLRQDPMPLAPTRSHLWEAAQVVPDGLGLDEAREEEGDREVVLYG

[1] = target: T2, UBE3B (His-tagged), recombinant (human, UniProt Q7Z3V4 1-1068); assay: co-IP; in vitro co-IP: purified His-tagged UBCH3 (5 μg) and His-tagged UBE3B (5 μg) with GST-tagged TRIB3 or the KD(C) domain; 1% NP-40, 120 mM NaCl, 40 mM tris-HCl pH 7.4, 6 h at 4 °C; conditions: both partners purified
T2 construct: recombinant UBE3B; also called purified UBE3B; source: Freestyle 293-F cells, transient transfection, purified (Ni-NTA, Superdex 200)
T2 sequence (looked up): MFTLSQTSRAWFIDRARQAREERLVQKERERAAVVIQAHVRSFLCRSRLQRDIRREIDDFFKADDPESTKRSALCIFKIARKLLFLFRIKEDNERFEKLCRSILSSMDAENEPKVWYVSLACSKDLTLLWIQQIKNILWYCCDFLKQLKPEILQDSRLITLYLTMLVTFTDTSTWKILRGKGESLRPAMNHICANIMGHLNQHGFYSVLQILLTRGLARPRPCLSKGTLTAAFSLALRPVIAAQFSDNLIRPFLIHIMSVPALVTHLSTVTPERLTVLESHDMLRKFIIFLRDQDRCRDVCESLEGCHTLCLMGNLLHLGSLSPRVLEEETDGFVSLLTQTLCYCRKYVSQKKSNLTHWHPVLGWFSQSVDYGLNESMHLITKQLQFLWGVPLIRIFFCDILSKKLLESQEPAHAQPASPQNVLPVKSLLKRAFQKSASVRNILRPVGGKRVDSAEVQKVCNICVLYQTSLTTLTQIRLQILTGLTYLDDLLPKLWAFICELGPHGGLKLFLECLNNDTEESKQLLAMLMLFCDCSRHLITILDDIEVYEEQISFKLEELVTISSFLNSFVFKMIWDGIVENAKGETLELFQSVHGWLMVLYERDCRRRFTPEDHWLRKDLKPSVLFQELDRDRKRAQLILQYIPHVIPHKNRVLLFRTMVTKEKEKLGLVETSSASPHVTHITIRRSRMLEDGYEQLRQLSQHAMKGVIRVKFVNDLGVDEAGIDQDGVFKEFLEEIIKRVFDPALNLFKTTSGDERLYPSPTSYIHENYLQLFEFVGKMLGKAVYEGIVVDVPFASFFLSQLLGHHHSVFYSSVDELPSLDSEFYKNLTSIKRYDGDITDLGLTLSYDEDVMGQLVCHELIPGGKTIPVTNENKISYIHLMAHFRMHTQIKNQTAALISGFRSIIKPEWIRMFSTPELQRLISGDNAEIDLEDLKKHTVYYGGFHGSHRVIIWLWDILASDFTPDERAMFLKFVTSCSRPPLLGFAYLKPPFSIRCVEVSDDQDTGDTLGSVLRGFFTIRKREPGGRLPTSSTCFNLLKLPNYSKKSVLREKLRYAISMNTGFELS

B1: CM4 peptide (peptide)
peptide: [dK][dR][dR][dE][dQ][dL][dK][dH][dK][dL][dE][dQ][dL][dR]
notes: α-helical peptide derived from the C terminus of MYC; source: synthetic peptide (Chinese Peptide Inc., >98% purity)
**Q.** How did the Kd (GST-tagged TRIB3) turn out when B1 was run?
**A.** 76.4 nM

B2: purified His-tagged UBCH3 (enzyme, UniProt P49427 1-236, looked up)
chain: MARPLVPSSQKALLLELKGLQEEPVEGFRVTLVDEGDLYNWEVAIFGPPNTYYEGGYFKARLKFPIDYPYSPPAFRFLTKMWHPNIYETGDVCISILHPPVDDPQSGELPSERWNPTQNVRTILLSVISLLNEPNTFSPANVDASVMYRKWKESKGKDREYTDIIRKQVLGTKVDAERDGVKVPTTLAEYCVKTKAPAPDEGSDLFYDDYYEDGEVEEEADSCFGDDEDDSGTEES
notes: UBCH3 (CDC34), purified; also called UBCH3 (E2); UHCH3
**Q.** Does B2 bind [1]?
**A.** binds
